The results in this text go back to the RNAGym collection of RNA variant scans (doi:10.1093/molbev/msab373).

First the molecules themselves.
B1: Azoarcus group I ribozyme (parent)
chain: GUGCCUUGCGCCGGGAAACCACGCAAGGGAUGGUGUCAAAUUCGGCGAAACCUAAGCGCCCGCCCGGGCGUAUGGCAACGCCGAGCCAAGCUUCGGCGCCUGCGCCGAUGAAGGUGUAGAGACUAGACGGCACCCACCUAAGGCAAACGCUAUGGUGAAGGCAUAGUCCAGGGAGUGGCGAAAGUCACACAAACCGG

In the data set the parent is B1. The data set is described as follows: reverse-splicing fitness (ratio to wild type); higher = more active; in vitro selection; Mg2+ level not given. The method in brief:
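An in vitro group I ribozyme library with randomized positions was T7-transcribed and gel-purified. In triplicate, 10 pmol RNA in EPPS pH 7.5 was reacted with 50 pmoles of a 30-nt RNA substrate for 1 h at 37 °C across several added MgCl2 levels (1–48 mM), then stopped with EDTA. Products were reverse transcribed from a substrate-complementary primer, PCR-amplified and sequenced (HiSeq 4000). Fitness is a variant's read proportion after selection over that before, normalised to wild type.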
Consider GUGCCUUGCGCCGGGAAACCACGCAAGGGAUGGUGUCAAAUUCGGCGAAACCUAAGCGCCCGCCCGGGCGUAUGGCAACGCCGAGCCAAGCUUCGGCGCCUGCGCCGAUGCAGGUGUAGGGACUAGACGGCACCCACCUAAGGCGAACGUUAUGGUGAAGGCAUAGUCUAGGGAGUGGCGAAAGUCACACAAACCGG, for which the reverse-splicing fitness stood at 0.139.
The value for GUGCCUUGCGCCGGGAAACCACGCAAGGGAUGGUGUCAAAUUCGGCGAAACCUAAGCGCCCGCCCGGGCGUAUGGCAACGCCGAGCCAAGCUUCGGCGCCUGCGCCGAUGCAGGUGUAGGGACUAGACGGCACCCACCUAAGGCUAACGCUAUGGUGAAGGCAUAGUCCAGGGAGUGGCGAAAGUCACACAAACCGG was 0.179.
As to GUGCCUUGCGCCGGGAAACCACGCAAGGGAUGGUGUCAAAUUCGGCGAAACCUAAGCGCCCGCCCGGGCGUAUGGCAACGCCGAGCCAAGCUUCGGCGCCUGCGCCGAUGCAGGUGUAGGGACUAGACGGCACCCACCUAAGGCUAACGAUAUGGUGAAGGCAUAGUCAAGGGAGGGGCGAAAGUCACACAAACCGG, the reverse-splicing fitness came out at 0.00497.
The value for GUGCCUUGCGCCGGGAAACCACGCAAGGGAUGGUGUCAAAUUCGGCGAAACCUAAGCGCCCGCCCGGGCGUAUGGCAACGCCGAGCCAAGCUUCGGCGCCUGCGCCGAUGCAGGUGUAGGGACUAGACGGCACCCACCUAAGGCUAACGAUAUGGUGAAGGCAUAGUCAAGGGAGCGGCGAAAGUCACACAAACCGG was 0.011.
Under GUGCCUUGCGCCGGGAAACCACGCAAGGGAUGGUGUCAAAUUCGGCGAAACCUAAGCGCCCGCCCGGGCGUAUGGCAACGCCGAGCCAAGCUUCGGCGCCUGCGCCGAUGCAGGUGUAGGGACUAGACGGCACCCACCUAAGGCUAACGAUAUGGUGAAGGCAUAGUCAAGGGAGAGGCGAAAGUCACACAAACCGG stands 0.0109; under GUGCCUUGCGCCGGGAAACCACGCAAGGGAUGGUGUCAAAUUCGGCGAAACCUAAGCGCCCGCCCGGGCGUAUGGCAACGCCGAGCCAAGCUUCGGCGCCUGCGCCGAUGCAGGUGUAGGGACUAGACGGCACCCACCUAAGGCGAACGCUAUGGUGAAGGCAUAGUCAAGGGAGGGGCGAAAGUCACACAAACCGG, 0.00458.
The value for GUGCCUUGCGCCGGGAAACCACGCAAGGGAUGGUGUCAAAUUCGGCGAAACCUAAGCGCCCGCCCGGGCGUAUGGCAACGCCGAGCCAAGCUUCGGCGCCUGCGCCGAUGCAGGUGUAGGGACUAGACGGCACCCACCUAAGGCGAACGCUAUGGUGAAGGCAUAGUCAAGGGAGAGGCGAAAGUCACACAAACCGG was 0.0264; that for GUGCCUUGCGCCGGGAAACCACGCAAGGGAUGGUGUCAAAUUCGGCGAAACCUAAGCGCCCGCCCGGGCGUAUGGCAACGCCGAGCCAAGCUUCGGCGCCUGCGCCGAUGCAGGUGUAGGGACUAGACGGCACCCACCUAAGGCGAACGCUAUGGUGAAGGCAUAGUCAAGGGAGCGGCGAAAGUCACACAAACCGG was 0.0401; that for GUGCCUUGCGCCGGGAAACCACGCAAGGGAUGGUGUCAAAUUCGGCGAAACCUAAGCGCCCGCCCGGGCGUAUGGCAACGCCGAGCCAAGCUUCGGCGCCUGCGCCGAUGCAGGUGUAGGGACUAGACGGCACCCACCUAAGGCUAACGAUAUGGUGAAGGCAUAGUCAAGGGAGUGGCGAAAGUCACACAAACCGG was 0.0145.
GUGCCUUGCGCCGGGAAACCACGCAAGGGAUGGUGUCAAAUUCGGCGAAACCUAAGCGCCCGCCCGGGCGUAUGGCAACGCCGAGCCAAGCUUCGGCGCCUGCGCCGAUGCAGGUGUAGGGACUAGACGGCACCCACCUAAGGCUAACGAUAUGGUGAAGGCAUAGUCCAGGGAGUGGCGAAAGUCACACAAACCGG: the reverse-splicing fitness was 0.0185.
In the case of GUGCCUUGCGCCGGGAAACCACGCAAGGGAUGGUGUCAAAUUCGGCGAAACCUAAGCGCCCGCCCGGGCGUAUGGCAACGCCGAGCCAAGCUUCGGCGCCUGCGCCGAUGCAGGUGUAGGGACUAGACGGCACCCACCUAAGGCGAACGUUAUGGUGAAGGCAUAGUCCAGGGAGAGGCGAAAGUCACACAAACCGG, the reverse-splicing fitness came to 0.0273.
Under GUGCCUUGCGCCGGGAAACCACGCAAGGGAUGGUGUCAAAUUCGGCGAAACCUAAGCGCCCGCCCGGGCGUAUGGCAACGCCGAGCCAAGCUUCGGCGCCUGCGCCGAUGCAGGUGUAGGGACUAGACGGCACCCACCUAAGGCGAACGUUAUGGUGAAGGCAUAGUCCAGGGAGGGGCGAAAGUCACACAAACCGG stands 0.00709.
Consider GUGCCUUGCGCCGGGAAACCACGCAAGGGAUGGUGUCAAAUUCGGCGAAACCUAAGCGCCCGCCCGGGCGUAUGGCAACGCCGAGCCAAGCUUCGGCGCCUGCGCCGAUGCAGGUGUAGGGACUAGACGGCACCCACCUAAGGCGAACGUUAUGGUGAAGGCAUAGUCCAGGGAGCGGCGAAAGUCACACAAACCGG, for which the reverse-splicing fitness worked out at 0.04.
The value for GUGCCUUGCGCCGGGAAACCACGCAAGGGAUGGUGUCAAAUUCGGCGAAACCUAAGCGCCCGCCCGGGCGUAUGGCAACGCCGAGCCAAGCUUCGGCGCCUGCGCCGAUGCAGGUGUAGGGACUAGACGGCACCCACCUAAGGCGAACGCUAUGGUGAAGGCAUAGUCUAGGGAGCGGCGAAAGUCACACAAACCGG was 0.045; that for GUGCCUUGCGCCGGGAAACCACGCAAGGGAUGGUGUCAAAUUCGGCGAAACCUAAGCGCCCGCCCGGGCGUAUGGCAACGCCGAGCCAAGCUUCGGCGCCUGCGCCGAUGCAGGUGUAGGGACUAGACGGCACCCACCUAAGGCGAACGCUAUGGUGAAGGCAUAGUCUAGGGAGAGGCGAAAGUCACACAAACCGG was 0.0413.
Consider GUGCCUUGCGCCGGGAAACCACGCAAGGGAUGGUGUCAAAUUCGGCGAAACCUAAGCGCCCGCCCGGGCGUAUGGCAACGCCGAGCCAAGCUUCGGCGCCUGCGCCGAUGCAGGUGUAGGGACUAGACGGCACCCACCUAAGGCGAACGCUAUGGUGAAGGCAUAGUCUAGGGAGGGGCGAAAGUCACACAAACCGG, for which the reverse-splicing fitness is 0.00448.
GUGCCUUGCGCCGGGAAACCACGCAAGGGAUGGUGUCAAAUUCGGCGAAACCUAAGCGCCCGCCCGGGCGUAUGGCAACGCCGAGCCAAGCUUCGGCGCCUGCGCCGAUGCAGGUGUAGGGACUAGACGGCACCCACCUAAGGCGAACGCUAUGGUGAAGGCAUAGUCCAGGGAGAGGCGAAAGUCACACAAACCGG: the reverse-splicing fitness came out at 0.0379.
The value for GUGCCUUGCGCCGGGAAACCACGCAAGGGAUGGUGUCAAAUUCGGCGAAACCUAAGCGCCCGCCCGGGCGUAUGGCAACGCCGAGCCAAGCUUCGGCGCCUGCGCCGAUGCAGGUGUAGGGACUAGACGGCACCCACCUAAGGCGAACGCUAUGGUGAAGGCAUAGUCCAGGGAGGGGCGAAAGUCACACAAACCGG was 0.00588.
For the variant GUGCCUUGCGCCGGGAAACCACGCAAGGGAUGGUGUCAAAUUCGGCGAAACCUAAGCGCCCGCCCGGGCGUAUGGCAACGCCGAGCCAAGCUUCGGCGCCUGCGCCGAUGCAGGUGUAGGGACUAGACGGCACCCACCUAAGGCGAACGCUAUGGUGAAGGCAUAGUCCAGGGAGCGGCGAAAGUCACACAAACCGG, the reverse-splicing fitness came out at 0.0456.
Under GUGCCUUGCGCCGGGAAACCACGCAAGGGAUGGUGUCAAAUUCGGCGAAACCUAAGCGCCCGCCCGGGCGUAUGGCAACGCCGAGCCAAGCUUCGGCGCCUGCGCCGAUGCAGGUGUAGGGACUAGACGGCACCCACCUAAGGCGAACGCUAUGGUGAAGGCAUAGUCUAGGGAGUGGCGAAAGUCACACAAACCGG stands 0.167; under GUGCCUUGCGCCGGGAAACCACGCAAGGGAUGGUGUCAAAUUCGGCGAAACCUAAGCGCCCGCCCGGGCGUAUGGCAACGCCGAGCCAAGCUUCGGCGCCUGCGCCGAUGCAGGUGUAGGGACUAGACGGCACCCACCUAAGGCGAACGCUAUGGUGAAGGCAUAGUCGAGGGAGUGGCGAAAGUCACACAAACCGG, 0.227.
The value for GUGCCUUGCGCCGGGAAACCACGCAAGGGAUGGUGUCAAAUUCGGCGAAACCUAAGCGCCCGCCCGGGCGUAUGGCAACGCCGAGCCAAGCUUCGGCGCCUGCGCCGAUGCAGGUGUAGGGACUAGACGGCACCCACCUAAGGCGAACGCUAUGGUGAAGGCAUAGUCAAGGGAGUGGCGAAAGUCACACAAACCGG was 0.123; that for GUGCCUUGCGCCGGGAAACCACGCAAGGGAUGGUGUCAAAUUCGGCGAAACCUAAGCGCCCGCCCGGGCGUAUGGCAACGCCGAGCCAAGCUUCGGCGCCUGCGCCGAUGCAGGUGUAGGGACUAGACGGCACCCACCUAAGGCGAACGCUAUGGUGAAGGCAUAGUCGAGGGAGAGGCGAAAGUCACACAAACCGG was 0.036; that for GUGCCUUGCGCCGGGAAACCACGCAAGGGAUGGUGUCAAAUUCGGCGAAACCUAAGCGCCCGCCCGGGCGUAUGGCAACGCCGAGCCAAGCUUCGGCGCCUGCGCCGAUGCAGGUGUAGGGACUAGACGGCACCCACCUAAGGCGAACGCUAUGGUGAAGGCAUAGUCGAGGGAGGGGCGAAAGUCACACAAACCGG was 0.00512.
The value for GUGCCUUGCGCCGGGAAACCACGCAAGGGAUGGUGUCAAAUUCGGCGAAACCUAAGCGCCCGCCCGGGCGUAUGGCAACGCCGAGCCAAGCUUCGGCGCCUGCGCCGAUGCAGGUGUAGGGACUAGACGGCACCCACCUAAGGCGAACGCUAUGGUGAAGGCAUAGUCGAGGGAGCGGCGAAAGUCACACAAACCGG was 0.0552; that for GUGCCUUGCGCCGGGAAACCACGCAAGGGAUGGUGUCAAAUUCGGCGAAACCUAAGCGCCCGCCCGGGCGUAUGGCAACGCCGAGCCAAGCUUCGGCGCCUGCGCCGAUGCAGGUGUAGGGACUAGACGGCACCCACCUAAGGCGAACGUUAUGGUGAAGGCAUAGUCUAGGGAGGGGCGAAAGUCACACAAACCGG was 0.00498.
On to GUGCCUUGCGCCGGGAAACCACGCAAGGGAUGGUGUCAAAUUCGGCGAAACCUAAGCGCCCGCCCGGGCGUAUGGCAACGCCGAGCCAAGCUUCGGCGCCUGCGCCGAUGCAGGUGUAGGGACUAGACGGCACCCACCUAAGGCGAACGUUAUGGUGAAGGCAUAGUCUAGGGAGAGGCGAAAGUCACACAAACCGG, for which the reverse-splicing fitness amounted to 0.0338.
Under GUGCCUUGCGCCGGGAAACCACGCAAGGGAUGGUGUCAAAUUCGGCGAAACCUAAGCGCCCGCCCGGGCGUAUGGCAACGCCGAGCCAAGCUUCGGCGCCUGCGCCGAUGCAGGUGUAGGGACUAGACGGCACCCACCUAAGGCGAACGUUAUGGUGAAGGCAUAGUCUAGGGAGCGGCGAAAGUCACACAAACCGG stands 0.0446.
On to GUGCCUUGCGCCGGGAAACCACGCAAGGGAUGGUGUCAAAUUCGGCGAAACCUAAGCGCCCGCCCGGGCGUAUGGCAACGCCGAGCCAAGCUUCGGCGCCUGCGCCGAUGCAGGUGUAGGGACUAGACGGCACCCACCUAAGGCGAACGUUAUGGUGAAGGCAUAGUCGAGGGAGGGGCGAAAGUCACACAAACCGG, for which the reverse-splicing fitness was determined as 0.00471.
Under GUGCCUUGCGCCGGGAAACCACGCAAGGGAUGGUGUCAAAUUCGGCGAAACCUAAGCGCCCGCCCGGGCGUAUGGCAACGCCGAGCCAAGCUUCGGCGCCUGCGCCGAUGCAGGUGUAGGGACUAGACGGCACCCACCUAAGGCGAACGUUAUGGUGAAGGCAUAGUCGAGGGAGCGGCGAAAGUCACACAAACCGG stands 0.035.
